In doi:10.1101/2025.09.10.675329 (bioRxiv, 2025):

Target: CDK5 (full-length), His-tag cleaved (human, UniProt Q00535 1-292)
Experiment: SEC

binding result: binds
B1: cyclin B1 (amino acids 152-433, C167S, C238S, C350S), co-expressed with CDK5 from a single 438-B vector (domain or fragment)
chain: AVNDVDAEDGADPNLSSEYVKDIYAYLRQLEEEQAVRPKYLLGREVTGNMRAILIDWLVQVQMKFRLLQETMYMTVSIIDRFMQNNSVPKKMLQLVGVTAMFIASKYEEMYPPEIGDFAFVTDNTYTKHQIRQMEMKILRALNFGLGRPLPLHFLRRASKIGEVDVEQHTLAKYLMELTMLDYDMVHFPPSQIAAGAFSLALKILDNGEWTPTLQHYLSYTEESLLPVMQHLAKNVVMVNQGLTKHMTVKNKYATSKHAKISTLPQLNSALVQDLAKAVAKV
